Experimental data reported in publication PMC6776259 (PLoS Pathogens, 2019).

Target: the molecule itself
Assay: split reporter (BiFC, NanoBiT)

B1: WSN FluPol heterotrimer in cells infected with recombinant WSN viruses expressing PB1-Gluc1 and PB1-Gluc2 (complex)
chain 1: MDVNPTLLFLKVPAQNAISTTFPYTGDPPYSHGTGTGYTMDTVNRTHQYSERGRWTTNTETGAPQLNPIDGPLPEDNEPSGYAQTDCVLEAMAFLEESHPGIFETSCLETMEVVQQTRVDKLTQGRQTYDWTLNRNQPAATALANTIEVFRSNGLTANESGRLIDFLKDVMESMNKEEMEITTHFQRKRRVRDNMTKKMVTQRTIGKRKQRLNKRSYLIRALTLNTMTKDAERGKLKRRAIATPGMQIRGFVYFVETLARSICEKLEQSGLPVGGNEKKAKLANVVRKMMTNSQDTEISFTITGDNTKWNENQNPRMFLAMITYITRNQPEWFRNVLSIAPIMFSNKMARLGKGYMFESKSMKIRTQIPAEMLASIDLKYFNDSTRKKIEKIRPLLIDGTASLSPGMMMGMFNMLSTVLGVSILNLGQKRHTKTTYWWDGLQSSDDFALIVNAPNHEGIQAGVNRFYRTCKLLGINMSKKKSYINRTGTFEFTSFFYRYGFVANFSMELPSFGVSGINESADMSIGVTVIKNNMINNDLGPATAQMALQLFIKDYRYTYRCHRGDTQIQTRRSFEIKKLWEQTHSKAGLLVSDGGPNLYNIRNLHIPEVCLKWELMDEDYQGRLCNPLNPFVNHKDIESVNNAVIMPAHGPAKNMEYDAVATTHSWIPKRNRSILNTSQRGILEDEQMYQKCCNLFEKFFPSSSYRRPVGISSMVEAMVSRARIDARIDFESGRIKKEEFTEIMKICSTIEELRRQK
chain 2: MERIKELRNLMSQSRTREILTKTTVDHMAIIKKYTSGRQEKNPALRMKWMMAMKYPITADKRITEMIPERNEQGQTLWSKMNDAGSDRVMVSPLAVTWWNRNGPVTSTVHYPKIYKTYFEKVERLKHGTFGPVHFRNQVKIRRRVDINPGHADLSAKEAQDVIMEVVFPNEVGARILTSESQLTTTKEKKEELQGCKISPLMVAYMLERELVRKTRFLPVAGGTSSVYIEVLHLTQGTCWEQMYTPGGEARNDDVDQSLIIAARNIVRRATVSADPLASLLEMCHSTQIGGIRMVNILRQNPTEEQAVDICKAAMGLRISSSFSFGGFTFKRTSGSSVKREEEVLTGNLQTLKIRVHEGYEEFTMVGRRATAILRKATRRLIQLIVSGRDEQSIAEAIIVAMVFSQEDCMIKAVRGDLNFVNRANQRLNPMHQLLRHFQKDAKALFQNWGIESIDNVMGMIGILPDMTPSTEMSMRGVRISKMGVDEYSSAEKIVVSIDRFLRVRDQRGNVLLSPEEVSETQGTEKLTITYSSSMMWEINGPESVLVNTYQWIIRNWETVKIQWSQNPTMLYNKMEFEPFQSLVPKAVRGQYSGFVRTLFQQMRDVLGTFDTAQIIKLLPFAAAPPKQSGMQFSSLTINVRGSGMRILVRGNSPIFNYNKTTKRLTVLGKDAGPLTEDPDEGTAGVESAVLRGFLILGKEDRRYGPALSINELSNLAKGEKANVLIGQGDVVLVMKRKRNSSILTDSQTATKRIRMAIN
chain 3: […]
notes: copies: + +
With B1 the “luciferase activity, fold over background” value was > 1000 fold over background.
